Laboratory results: patent US11306156

Columns and labels:
[1] = target: D3H44 light chain Q124E_L135W_Q160E_T180E; test: LCCA, SPR tag readout, L1:L2 DNA 1:3 normalized to 1:1; competitor m23
[2] = target: D3H44 light chain F116A_Q124R_L135V_T178R; test: LCCA, SPR tag readout, L1:L2 DNA 1:3 normalized to 1:1; competitor m24
[3] = target: D3H44 light chain F116A_Q124R_L135V; test: as above
[4] = target: D3H44 light chain Q124E_L135W_Q160E_T180E; test: LCCA, SPR tag readout, L1:L2 DNA 1:3 normalized to 1:1; competitor m25
[5] = target: D3H44 light chain Q124E_L135W_Q160E_T180E; test: LCCA, SPR tag readout, L1:L2 DNA 1:9 normalized to 1:1; competitor m23
[6] = target: D3H44 light chain F116A_Q124R_L135V_T178R; test: LCCA, SPR tag readout, L1:L2 DNA 1:9 normalized to 1:1; competitor m24
[7] = target: D3H44 light chain F116A_Q124R_L135V; test: as above
[8] = target: D3H44 light chain Q124E_L135W_Q160E_T180E; test: LCCA, SPR tag readout, L1:L2 DNA 1:9 normalized to 1:1; competitor m25
[9] = target: D3H44 light chain T178R (Kabat) with N-terminal HA or FLAG tag; test: LCCA, SPR read-out of light-chain tags; light-chain DNA 1:3 normalized to 1:1; competing light chain m17
[10] = target: D3H44 light chain Q124E_Q160E_T180E (Kabat) with N-terminal HA or FLAG tag; test: LCCA, SPR read-out of light-chain tags; light-chain DNA 1:3 normalized to 1:1; competing light chain m18
[11] = target: D3H44 light chain Q124R_Q160K_T178R (Kabat) with N-terminal HA or FLAG tag; test: LCCA, SPR read-out of light-chain tags; light-chain DNA 1:3 normalized to 1:1; competing light chain m17
[12] = target: D3H44 light chain Q124E_Q160E_T180E (Kabat) with N-terminal HA or FLAG tag; test: LCCA, SPR read-out of light-chain tags; light-chain DNA 1:3 normalized to 1:1; competing light chain m20
[13] = target: tissue factor (TF) antigen (UniProt P13726); test: SPR (ProteOn XPR36), Fab captured on anti-penta-His surface, TF as analyte, 1:1 fit
[14] = target: tissue factor (TF) antigen (UniProt P13726); test: SPR (ProteOn XPR36), Fab captured on anti-penta-His surface, TF as analyte; reference wild-type D3H44 Fab
[15] = target: tissue factor (TF) antigen (UniProt P13726); test: SPR (ProteOn XPR36), His-tagged Fab captured on anti-penta His, TF as analyte, 1:1 fit; batch C (+)
[16] = target: tissue factor (TF) antigen (UniProt P13726); test: SPR (ProteOn XPR36), His-tagged Fab captured on anti-penta His, TF as analyte; against wild-type D3H44 Fab; batch C (+)

D3H44 Fab heavy chain A139G_Q179K_V190A gave an H1L1:H1L2 normalized median ratio [1] of 87%, an H1L1:H1L2 normalized median scalar value ln(r1/f1) [1] of 1.88 and an H1L1:H1L2 normalized median ratio [2] of 13%. It also gave an H1L1:H1L2 normalized median ratio [3] of 15%, an H1L1:H1L2 normalized median ratio [4] of 85% and an H1L1:H1L2 normalized median scalar value ln(r1/f1) [4] of 1.71. It also gave an H1L1:H1L2 normalized median ratio [5] of 86%, an H1L1:H1L2 normalized median scalar value ln(r1/f1) [5] of 1.85 and an H1L1:H1L2 normalized median ratio [6] of 14%. It also gave an H1L1:H1L2 normalized median ratio [7] of 9%, an H1L1:H1L2 normalized median ratio [8] of 91% and an H1L1:H1L2 normalized median scalar value ln(r1/f1) [8] of 2.31.
“D3H44 Fab heavy chain A139W_L143E_K145T_Q179E” was tested, and the H1L1:H1L2 normalized median ratio [1] was 2%, the H2L2:H2L1 normalized median ratio [1] was 2% and the H1L1:H1L2 normalized median ratio [2] was 98%. For the same substance, the H1L1:H1L2 normalized median scalar value ln(r1/f1) [2] was 3.79, the H2L2:H2L1 normalized median ratio [2] was 98% and the H1L1:H1L2 normalized median ratio [3] was 97%. The H1L1:H1L2 normalized median scalar value ln(r1/f1) [3] was 3.66, the H2L2:H2L1 normalized median ratio [3] was 97% and the H1L1:H1L2 normalized median ratio [4] was 3%. The H2L2:H2L1 normalized median ratio [4] was 3%, the H1L1:H1L2 normalized median ratio [5] was 3% and the H2L2:H2L1 normalized median ratio [5] was 3%. It also gave an H1L1:H1L2 normalized median ratio [6] of 97%, an H1L1:H1L2 normalized median scalar value ln(r1/f1) [6] of 3.38 and an H2L2:H2L1 normalized median ratio [6] of 97%. For the same substance, the H1L1:H1L2 normalized median ratio [7] was 95%, the H1L1:H1L2 normalized median scalar value ln(r1/f1) [7] was 2.96 and the H2L2:H2L1 normalized median ratio [7] was 95%. The H1L1:H1L2 normalized median ratio [8] was 5% and the H2L2:H2L1 normalized median ratio [8] was 5%.
Substance “D3H44 Fab heavy chain L143D_K145T_Q179E (Kabat) with C-terminal ABD2-His6 tag” has an H1L1:H1L2 normalized median ratio [9] of 89%, an H1L1:H1L2 normalized median scalar value ln(r1/f1) [9] of 2.1 and an H1L1:H1L2 normalized median ratio [10] of 11%.
For D3H44 Fab heavy chain Q179K, the H2L2:H2L1 normalized median ratio [1] was 88%, the H2L2:H2L1 normalized median ratio [2] was 12% and the H2L2:H2L1 normalized median ratio [3] was 23%. It also gave an H2L2:H2L1 normalized median ratio [4] of 77%, an H2L2:H2L1 normalized median ratio [5] of 87% and an H2L2:H2L1 normalized median ratio [6] of 13%. It also gave an H2L2:H2L1 normalized median ratio [7] of 20% and an H2L2:H2L1 normalized median ratio [8] of 80%.
“D3H44 Fab heavy chain Q179K (Kabat) with C-terminal ABD2-His6 tag” gave an H2L2:H2L1 normalized median ratio [11] of 13%, an H2L2:H2L1 normalized median ratio [9] of 22% and an H2L2:H2L1 normalized median ratio [10] of 78%. It also gave an H2L2:H2L1 normalized median ratio [12] of 87%.
For “D3H44 Fab heterodimer H1 L45P_L143E_K145T_H172R / L1 P44F_Q124R_Q160K_T178R”, the Kd [13] was 0.29 nM and the Change in median values of KD of h1l1 Fab heterodimer compared to wild type (-(log(KD design)-log(KD wt))) [14] was -0.27.
“D3H44 Fab heterodimer H1 L124A / L1 V133W” gave a Kd [13] of 0.13 nM and a Change in median values of KD of h1l1 Fab heterodimer compared to wild type (-(log(KD design)-log(KD wt))) [14] of 0.07.
Substance “D3H44 Fab heterodimer H1 L124A_S186K / L1 Q124E_V133W_T180E” has a Kd [13] of 0.15 nM and a Change in median values of KD of h1l1 Fab heterodimer compared to wild type (-(log(KD design)-log(KD wt))) [14] of 0.02.
In the case of “D3H44 Fab heterodimer H1 L124R_A125R_H172T / L1 V133G_N137K_S174R_S176D”, the Kd [13] is reported as 0.23 nM and the Change in median values of KD of h1l1 Fab heterodimer compared to wild type (-(log(KD design)-log(KD wt))) [14] is reported as -0.16.
“D3H44 Fab heterodimer H1 L124R_H172T / L1 V133G_N137K_S174R_S176D” was tested, and the Kd [13] was 0.23 nM and the Change in median values of KD of h1l1 Fab heterodimer compared to wild type (-(log(KD design)-log(KD wt))) [14] was -0.16.
“D3H44 Fab heterodimer H1 L124W_L143E_K145T_Q179E / L1 Q124R_V133A_S176T_T178R” showed a Kd [13] of 0.21 nM and a Change in median values of KD of h1l1 Fab heterodimer compared to wild type (-(log(KD design)-log(KD wt))) [14] of -0.13.
Work on “D3H44 Fab heterodimer, H1 L143E_K145T_P175C_Q179E / L1 Q124R_S162C_T178R (H1L1 Fab of LCCA Set # 9613)” yielded a Kd [15] of 0.12 nM and a Change in median values of KD of h1|1 Fab heterodimer compared to wild type (-(log(KD design)-log(KD wt))) [16] of 0.12.
“D3H44 Fab heterodimer, H1 Q39E_L143E_K145T / L1 Q38R_Q124R_Q160K_T178R (H1L1 Fab of LCCA Set # 9817)” showed a Kd [15] of 0.18 nM and a Change in median values of KD of h1|1 Fab heterodimer compared to wild type (-(log(KD design)-log(KD wt))) [16] of -0.05.
Work on “D3H44 Fab heterodimer, H1 Q39R_D146G_Q179K / L1 Q38E_Q124E_Q160E_T180E (H1L1 Fab of LCCA Set # 9822)” yielded a Kd [15] of 0.11 nM and a Change in median values of KD of h1|1 Fab heterodimer compared to wild type (-(log(KD design)-log(KD wt))) [16] of 0.17.
